The source of these data is patent US20250129166A1 (Five Prime, published 2025).

Numbering of substitutions follows the chain as printed.

The chains are these.
B1: P1-071793 (P1-070916_HC_K16R_T84A, FW revertant) (antibody, V domains shown)
VH: EVQLVESGGGLVQPGRSLRLSCAASGFTLEDYAMHWVRQAPGKGLEWVSGINWNSANIGYADSVKGRFTISRDNAKNSLYLQMNSLRAEDTALYYCAKVPGYSGGWIDAEDDWGQGTMVTVSS
VL: not shown
notes: VH/VL only
B2: P1-072000 (P1-061029_F100fE_V102D) (antibody, human IgG1, kappa, V domains shown)
VH: B1 VH with R16K, E30D, A88T
VL: not shown
notes: also called P1-72000
B3: P1-071777 (P1-070868_HC_K16R, FW revertant) (antibody, V domains shown)
VH: B1 VH with Y32E, N57E, A88T, G104H, D112V
VL: not shown
notes: VH/VL only
B4: P1-071773 (P1-068767_HC_T84A, FW revertant) (antibody, V domains shown)
VH: B1 VH with R16K, N52D, A56E
VL: not shown
notes: VH/VL only
B5: P1-071771 (P1-068767_HC_K16R, FW revertant) (antibody, V domains shown)
VH: B1 VH with N52D, A56E, A88T
VL: not shown
notes: VH/VL only
B6: P1-071791 (P1-070908_HC_T84A, FW revertant) (antibody, V domains shown)
VH: B1 VH with R16K, N52D
VL: not shown
notes: VH/VL only
B7: P1-071769 (P1-068767_HC_K16R_T84A, FW revertant) (antibody, V domains shown)
VH: B1 VH with N52D, A56E
VL: not shown
notes: VH/VL only
B8: P1-071763 (P1-068761_HC_K16R_T84A, FW revertant) (antibody, V domains shown)
VH: B1 VH with Y32E, A56E, N57E, G104H, D112V
VL: not shown
notes: VH/VL only
B9: P1-071765 (P1-068761_HC_K16R, FW revertant) (antibody, V domains shown)
VH: B1 VH with Y32E, A56E, N57E, A88T, G104H, D112V
VL: not shown
notes: VH/VL only
B10: P1-071783 (P1-070906_HC_K16R, FW revertant) (antibody, V domains shown)
VH: B1 VH with A56E, A88T
VL: not shown
notes: VH/VL only
B11: P1-071785 (P1-070906_HC_T84A, FW revertant) (antibody, V domains shown)
VH: B1 VH with R16K, A56E
VL: not shown
notes: VH/VL only
B12: P1-071797 (P1-070916_HC_T84A, FW revertant) (antibody, V domains shown)
VH: B1 VH with R16K
VL: not shown
notes: VH/VL only
B13: P1-070868 (P1-068761_E55A) IgG1.3 (antibody, V domains shown)
VH: B1 VH with R16K, Y32E, N57E, A88T, G104H, D112V
VL: not shown
notes: IgG1.3
B14: P1-071789 (P1-070908_HC_K16R, FW revertant) (antibody, V domains shown)
VH: B1 VH with N52D, A88T
VL: not shown
notes: VH/VL only
B15: P1-072004 (P1-061029_V102D) (antibody, human IgG1, kappa, V domains shown)
VH: B1 VH with R16K, E30D, A88T, E110F
VL: not shown
notes: also called P1-72004
B16: P1-071795 (P1-070916_HC_K16R, FW revertant) (antibody, V domains shown)
VH: B1 VH with A88T
VL: not shown
notes: VH/VL only
B17: P1-071779 (P1-070868_HC_T84A, FW revertant) (antibody, V domains shown)
VH: B1 VH with R16K, Y32E, N57E, G104H, D112V
VL: not shown
notes: VH/VL only
B18: P1-071775 (P1-070868_HC_K16R_T84A, FW revertant) (antibody, V domains shown)
VH: B1 VH with Y32E, N57E, G104H, D112V
VL: not shown
notes: VH/VL only
B19: P1-071781 (P1-070906_HC_K16R_T84A, FW revertant) (antibody, V domains shown)
VH: B1 VH with A56E
VL: not shown
notes: VH/VL only
B20: P1-071767 (P1-068761_HC_T84A, FW revertant) (antibody, V domains shown)
VH: B1 VH with R16K, Y32E, A56E, N57E, G104H, D112V
VL: not shown
notes: VH/VL only
B21: P1-072008 (P1-061029_Y32E_F100fE) (antibody, human IgG1, kappa, V domains shown)
VH: B1 VH with R16K, E30D, Y32E, A88T, D112V
VL: not shown
notes: also called P1-72008
B22: P1-071787 (P1-070908_HC_K16R_T84A, FW revertant) (antibody, V domains shown)
VH: B1 VH with N52D
VL: not shown
notes: VH/VL only
B23: P1-068761_E30D (antibody, human IgG1, kappa, V domains shown)
VH: B1 VH with R16K, E30D, Y32E, A56E, N57E, A88T, G104H, D112V
VL: not shown
notes: also called P1-070864
B24: P1-068761_E56N_H100G (antibody, human IgG1, kappa, V domains shown)
VH: B1 VH with R16K, Y32E, A56E, A88T, D112V
VL: not shown
notes: also called P1-070900
B25: P1-068761_E30D_E56N (antibody, human IgG1, kappa, V domains shown)
VH: B1 VH with R16K, E30D, Y32E, A56E, A88T, G104H, D112V
VL: not shown
notes: also called P1-070892
B26: P1-068761_E30D_E55A (antibody, human IgG1, kappa, V domains shown)
VH: B1 VH with R16K, E30D, Y32E, N57E, A88T, G104H, D112V
VL: not shown
notes: also called P1-070890
B27: P1-068761_E55A_E56N (antibody, human IgG1, kappa, V domains shown)
VH: B1 VH with R16K, Y32E, A88T, G104H, D112V
VL: not shown
notes: also called P1-070878
B28: P1-068761_E56N (antibody, human IgG1, kappa, V domains shown)
VH: B1 VH with R16K, Y32E, A56E, A88T, G104H, D112V
VL: not shown
notes: also called P1-070870
B29: P1-068761_E30D_H100G (antibody, human IgG1, kappa, V domains shown)
VH: B1 VH with R16K, E30D, Y32E, A56E, N57E, A88T, D112V
VL: not shown
notes: also called P1-070894
B30: P1-068761_H100G (antibody, human IgG1, kappa, V domains shown)
VH: B1 VH with R16K, Y32E, A56E, N57E, A88T, D112V
VL: not shown
notes: also called P1-070872

The target in the first experiment is T1, monovalent hVISTA-ECD (amino acids 32-193 of SEQ ID NO: 1 with a 7xHis tail) (human, UniProt Q9H7M9 33-193).
T1 construct: also called huVISTA-His; human VISTA-ECD
T1 sequence (Q9H7M9 other isoform, or with tags, fused parts or gaps limits assumed): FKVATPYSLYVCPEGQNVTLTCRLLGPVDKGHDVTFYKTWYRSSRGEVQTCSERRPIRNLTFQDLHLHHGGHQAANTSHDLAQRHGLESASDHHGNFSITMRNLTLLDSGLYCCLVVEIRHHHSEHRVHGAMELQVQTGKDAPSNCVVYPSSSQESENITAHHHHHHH
In words: SPR, mAb on Protein A, 37C, pH 6.0; pH 6.0. As to the method: Binding of several preparations of each of the '029 progeny clones and of the parent '029 antibodies, formatted as IgG1.3 antibodies, to human VISTA at pH 6.0 and 7.4 was measured by Surface plasmon resonance (SPR). SPR analysis was performed to measure koff and KD binding affinity measurements for VISTA Abs at acidic and neutral pHs using a Biacore® T100 instrument (GE Healthcare). Protein A (ThermoFisher Scientific catalog #21181) was diluted to 20 μg/ml in 10 mM sodium acetate pH 4.5 and immobilized onto flow cells of a CM5 biosensor following the manufacturer's amine coupling protocol (GE Healthcare), targeting 2,000 RU immobilization density of Protein A per flow cell. SPR experiments were conducted at 37° C. using PBST (137 mM sodium chloride, 2.7 mM potassium chloride, 10 mM phosphate buffer, 0.05% Tween® 20) running buffer at pH 7.4 and 6.0. Antibodies were diluted to 25 nM in PBST pH 7.4, and were captured across active biosensor flow cells at 5 ul/min for 60 seconds. A concentration series of 50-5 nM monovalent hVISTA-ECD (SEQ ID NO: 325) was prepared in pH 7.4 and 6.0 running buffers, and was injected over the captured antibodies at 40 ul/min to measure association and dissociation. Two 15 second injections of 10 mM glycine pH 1.5 were used to regenerate the Protein A capture surface between assay cycles. Rate constants ka (kₒₙ) and kd (koff) were derived from reference flow cell and 0 nM blank-subtracted sensorgrams, and were fit to a 1:1 binding model in Biacore® T200 Evaluation Software v.2.0. The affinity constant, KD was calculated as the ratio of rate constants koff/kₒₙ for each VISTA antibody.
B1 registered a Kd of 8.1 nM, a koff of 0.0017 s⁻¹ and a kon of 210000 M⁻¹ s⁻¹.

B2 had a Kd of 12 nM, a koff of 0.0023 s⁻¹ and a kon of 200000 M⁻¹ s⁻¹.

In turn, B3 came in with a Kd of 6.4 nM, a koff of 0.0017 s⁻¹ and a kon of 270000 M⁻¹ s⁻¹.

The molecule B4 came in with a Kd of 9.8 nM, a koff of 0.0026 s⁻¹ and a kon of 270000 M⁻¹ s⁻¹.

Consider B5, for which the Kd was found to be 11 nM, the koff was 0.0026 s⁻¹ and the kon worked out at 250000 M⁻¹ s⁻¹.

Regarding B6, binding was characterised by a dissociation constant (Kd) of 11 nM, the koff worked out at 0.0027 s⁻¹ and the kon came out at 240000 M⁻¹ s⁻¹.

B7 came in with a Kd of 11 nM, a koff of 0.0026 s⁻¹ and a kon of 240000 M⁻¹ s⁻¹.

Take B8: the Kd was 4.9 nM, the off-rate constant (koff) was determined as 0.0014 s⁻¹ and the kon was 290000 M⁻¹ s⁻¹.

The molecule B9 displayed a Kd of 5 nM and a kon of 280000 M⁻¹ s⁻¹.

Molecule B10 returned a Kd of 7.6 nM, a koff of 0.0017 s⁻¹ and a kon of 220000 M⁻¹ s⁻¹.

Consider B11, for which binding was put at a Kd of 6.7 nM, the koff turned out to be 0.0017 s⁻¹ and the kon was found to be 250000 M⁻¹ s⁻¹.

In turn, B12 came in with a Kd of 7.7 nM, a koff of 0.0017 s⁻¹ and a kon of 220000 M⁻¹ s⁻¹.

Molecule B13 displayed a Kd of 7 nM, a koff of 0.0018 s⁻¹ and a kon of 260000 M⁻¹ s⁻¹.

Molecule B14 gave a Kd of 13 nM, a koff of 0.0026 s⁻¹ and a kon of 210000 M⁻¹ s⁻¹.

B15 displayed a Kd of 180 nM, a koff of 0.025 s⁻¹ and a kon of 140000 M⁻¹ s⁻¹.

B16 showed a Kd of 8.1 nM, a koff of 0.0017 s⁻¹ and a kon of 210000 M⁻¹ s⁻¹.

For B17, binding was characterised by a dissociation constant (Kd) of 7 nM, the koff amounted to 0.0018 s⁻¹ and the kon was 260000 M⁻¹ s⁻¹.

In turn, B18 showed a Kd of 6.9 nM, a koff of 0.0017 s⁻¹ and a kon of 250000 M⁻¹ s⁻¹.

B19 returned a Kd of 7.7 nM, a koff of 0.0017 s⁻¹ and a kon of 220000 M⁻¹ s⁻¹.

On to B20, for which the Kd stood at 5.1 nM, the koff came to 0.0016 s⁻¹ and the kon is 310000 M⁻¹ s⁻¹.

B21 returned a Kd of 88 nM, a koff of 0.024 s⁻¹ and a kon of 270000 M⁻¹ s⁻¹.

For B22, binding was put at a Kd of 13 nM, the koff worked out at 0.0027 s⁻¹ and the kon came to 210000 M⁻¹ s⁻¹.

Another experiment has as its target T1, monovalent hVISTA-ECD (amino acids …). Description: SPR, mAb captured on Protein A, hVISTA-ECD analyte, 37 C, pH 6.0. As to the method:
(§1) Binding kinetics were measured using a Biacore® T100 instrument (GE Healthcare). Protein A (ThermoFisher Scientific catalog #21181) was diluted to 20 μg/ml in 10 mM sodium acetate pH 4.5 and immobilized onto flow cells of a CM5 biosensor following the manufacturer's amine coupling protocol (GE Healthcare), targeting 2,000 RU immobilization density of Protein A per flow cell. The assay was conducted at 37° C. using PBST (137 mM sodium chloride, 2.7 mM potassium chloride, 10 mM phosphate buffer, 0.05% Tween 20) running buffer at pH 7.4, 6.7 and 6.0. Antibodies were diluted to 25 nM in PBST pH 7.4, and were captured across active biosensor flow cells at 5 ul/min for 40 seconds. A concentration series of 100-10 nM monovalent hVISTA-ECD (SEQ ID NO: 325) was prepared in pH 7.4, 6.7 and 6.0 running buffers, and was injected over the captured antibodies at 40 ul/min to measure association and dissociation. Two 15 second injections of 10 mM glycine pH 1.5 were used to regenerate the Protein A capture surface between assay cycles. Rate constants ka (kon) and kd (koff) were derived from reference flow cell and 0 nM blank-subtracted sensorgrams, and were fit to a 1:1 binding model in Biacore® T200 Evaluation Software v.2.0.
(§2) The affinity constant, KD was calculated as the ratio of rate constants koff/kₒₙ for each VISTA antibody. The % Rmax was calculated to compare how pH affects an antibody's binding capacity for VISTA, and represents the measured maximal VISTA binding response relative to the expected maximal VISTA binding response. The % Rmax is defined as the ratio of the reference-subtracted ‘binding’ report point response at the end of the 100 nM VISTA injection for each antibody (Rmax) relative to the expected VISTA binding response (Rexp). Rexp is calculated as Rexp=[(VISTA-ECD molecular weight/mAb molecular weight)×(mAb ‘capture’ report point response (RUs)]×2 binding sites per mAb.
Background: SPR reads the build-up and loss of mass on a sensor chip optically.
Turning to B23, the koff is 0.0062 s⁻¹.

B24: the koff amounted to 0.0081 s⁻¹.

For the molecule B25, the koff was found to be 0.034 s⁻¹.

On to B26, for which the koff was 0.0074 s⁻¹.

Consider B27, for which the koff came to 0.0056 s⁻¹.

For the molecule B28, the koff amounted to 0.0055 s⁻¹.

B29 showed a koff of 0.021 s⁻¹.

For the molecule B13, the koff turned out to be 0.0017 s⁻¹.

B30 gave a koff of 0.0052 s⁻¹.

A further experiment shares this target. In words: SPR, mAb captured on Protein A, hVISTA-ECD analyte, 37 C, pH 6.7. As to the method:
as §1, §2
B23 registered a koff of 0.018 s⁻¹.

Regarding B27, the koff was determined as 0.029 s⁻¹.

Consider B13, for which the koff was 0.0064 s⁻¹.

B30 yielded a koff of 0.014 s⁻¹.

Broadly, the Kd is the constant that tells how readily two partners part at equilibrium. A word on the koff: it is a measure of how fast the partners let go of each other. Lower therefore signals a long-lived complex. Usually kon stands for a measure of how fast the partners come together.
